Experimental data published in the RNAGym collection of RNA variant scans (doi:10.7554/elife.80360).

B1: Hairpin Ribozyme (parent)
chain: GUCCUCUUUCACGUGCGCGUGAAAGAGAGAAGUGAACCAGAGAAACACACGUUGUGGUAUAUUACCUGGUA

Variants of: B1
Test: self-cleavage, relative activity (ratio to wild type); higher = more cleavage; co-transcriptional

Row | Variant | self-cleavage
1 | C10A G68A | 0.177
2 | C10A A47G | 0.2
3 | A11C G54A | 0.508
4 | C10A A41U | 1.04
5 | C10A A41C | 0.752
6 | C10G A47C | 0.307
7 | U9G A45G | 0.205
8 | U9G A45U | 0.0827
9 | C10A G51C | 0.566
10 | C10A G25U | 0.356
11 | C10A G25C | 0.227
12 | C10A G25A | 0.187
13 | A11C A22C | 0.803
14 | A11C A44C | 0.0983
15 | A11C A44G | 0.197
16 | A11C U53C | 0.681
17 | U9G C65U | 0.122
18 | U9G C46A | 0.204
19 | U9G C46U | 0.0772
20 | U9G C46G | 0.161
21 | U9G G32C | 0.0561
22 | A11C G40A | 0.318
23 | C10G G54A | 0.375
24 | C10U C38G | 0.269

Row | Variant | self-cleavage
25 | C10U C38U | 0.387
26 | C10U C38A | 0.157
27 | U9G U52C | 0.546
28 | U9G U52A | 0.705
29 | U9G U52G | 0.492
30 | C10U A49U | 0.0687
31 | C10G C37G | 0.372
32 | C10G C37U | 0.379
33 | A11C C38G | 0.0848
34 | C10A G32C | 0.0945
35 | C10A G32U | 0.156
36 | U9G C66G | 0.172
37 | A11C A47U | 0.251
38 | U9G A49G | 0.558
39 | U9G G40U | 0.086
40 | U9G G40A | 0.179
41 | U9G A30G | 0.0174
42 | A11C G13C | 0.503
43 | A11C G13U | 0.717
44 | U9G C50A | 0.24
45 | U9G C50G | 0.208
46 | U9G C50U | 0.393
47 | C10A G21A | 0.856
48 | C10A G21C | 0.67

Row | Variant | self-cleavage
49 | C10A A36U | 0.43
50 | C10A A36G | 0.856
51 | C10A C46A | 0.109
52 | C10A C46U | 0.2
53 | C10A C46G | 0.1
54 | C10G U20C | 0.647
55 | C10G U20G | 0.561
56 | C10U G69U | 0.217
57 | C10U G69A | 0.405
58 | C10U U60C | 0.992
59 | C10U A39C | 0.458
60 | C10U G27U | 0.225
61 | C10U G27C | 0.0988
62 | A11G A23C | 0.596
63 | A11G A23U | 0.93
64 | A11G A39U | 0.495
65 | C10G G56C | 0.149
66 | C10G G56U | 0.109
67 | C10U A35C | 0.871
68 | C10G U60C | 0.815
69 | C10A U20A | 0.781
70 | A11G A24C | 0.746
71 | C10A U60A | 0.64
72 | C10A U60C | 0.579

Row | Variant | self-cleavage
73 | C10A U60G | 0.377
74 | C10U U62A | 0.234
75 | C10U C12A | 0.574
76 | U9G A43U | 0.111
77 | U9G A43G | 0.116
78 | A11C G42U | 0.214
79 | C10A G27C | 0.159
80 | C10U A30U | 0.12
81 | A11C A43C | 0
82 | A11C A43G | 0.0792
83 | C10G U52G | 0.631
84 | A11C A24G | 0.539
85 | A11C A30U | 0.177
86 | A11C A30C | 0.147
87 | A11C C18U | 0.94
88 | A11C C18G | 0.775
89 | C10A G40C | 0.158
90 | C10G G42U | 0.214
91 | C10G G42C | 0.307
92 | C10G A22C | 0.597
93 | U9G U67A | 0.0846
94 | C10U C18U | 0.95
95 | C10U C18A | 0.956
96 | U9G A31U | 0.1

Row | Variant | self-cleavage
97 | C10A G42A | 0.149
98 | U9G A41G | 0.593
99 | A11C A71U | 0.747
100 | A11C A71C | 1.15
101 | A11C A71G | 0.902
102 | A11C G68U | 0.307
103 | U9G G13C | 0.528
104 | A11G A47U | 0.131
105 | A11G A47G | 0.0539
106 | C10U A31C | 0.135
107 | C10G C48G | 0.0825
108 | U9G A24U | 0.483
109 | A11C C16G | 0.578
110 | A11C C16A | 0.759
111 | C10A A23U | 0.666
112 | C10A A23G | 0.6
113 | A11C A26G | 0.645
114 | U9G U70G | 0.539
115 | C10A U52G | 0.731
116 | C10G G68U | 0.148
117 | C10G G68A | 0.172
118 | C10U U58C | 0.771
119 | C10U U58G | 0.557
120 | C10G U33C | 0.0987

Row | Variant | self-cleavage
121 | C10G U33G | 0.25
122 | C10A U70G | 0.767
123 | C10A U70C | 0.616
124 | C10U A36G | 0.648
125 | C10U A36C | 0.662
126 | A11C U55A | 0.448
127 | A11C U55C | 0.183
128 | A11C A39U | 0.37
129 | C10A A44G | 0.178
130 | C10A U55G | 0.303
131 | C10A U55C | 0.248
132 | C10U U63C | 0.102
133 | C10G U55A | 0.316
134 | C10G U55G | 0.195
135 | A11C G57U | 0.323
136 | C10G G13C | 0.401
137 | U9G C38G | 0.175
138 | A11C G17C | 0.745
139 | A11C G17U | 0.745
140 | A11G A28U | 0.447
141 | C10A A61G | 0.183
142 | C10U G57C | 0.187
143 | A11C G15U | 0.996
144 | C10U A28G | 0.822

Row | Variant | self-cleavage
145 | U9G U62A | 0.0559
146 | U9G G57C | 0.232
147 | U9G A61U | 0.211
148 | C10G G40C | 0.122
149 | C10U G25C | 0.487
150 | C10A U33A | 0.153
151 | A11G A59G | 0.199
152 | U9G G25U | 0.194
153 | U9G G25C | 0.255
154 | C10U A44C | 0.135
155 | C10A G17U | 0.681
156 | A11G C16U | 0.902
157 | A11G C16A | 0.825
158 | C10A U14G | 0.632
159 | C10A U14A | 0.661
160 | A11C G19A | 0.741
161 | A11C C50G | 0.321
162 | C10A A45C | 0.111
163 | C10A A45U | 0.121
164 | A11C G32A | 0.179
165 | A11C G32U | 0.063
166 | C10U G54A | 0.561
167 | C10U G54U | 0.452
